Assay results: paper PMC5514047

Target: human ribosomal stalk protein P2 lacking the last 16 amino acids (P2ΔC) (human) (UniProt P05387)
Test: native MS

human ribosomal stalk protein P2 lacking the last 16 amino acids (P2ΔC) (from UniProt P05387 1-99) (domain or fragment)
stoichiometry N: 2
